Results from PMC4970670, “Mek1 Down Regulates Rad51 Activity during Yeast Meiosis by Phosphorylation of Hed1” (PLoS Genetics, 2016).

B1: GST-Hed1 (natural protein, S. cerevisiae, UniProt Q03937 1-162, looked up)
chain: MQQRSNRRSCSYIPLGVHNNAEKSLCTEVAPARKNKRSITTSPIVNINVVERRLFNLELEKQQLRAKNLSENTGGGSPNGGAYLDAKKGVREQDQYQGGPSKELDRLQPPPSMKKSPPRKKKSLKDLIYETNKTFYQVDSNKVKYKVGLSKKQLLPSKTVDN
notes: Hed1, meiosis-specific protein of S. cerevisiae; also called GST-Hed1 WT; recombinant GST-Hed1; source: E. coli, purified
B2: GST-Hed1-3A (natural protein, S. cerevisiae, UniProt Q03937 1-162, looked up)
chain: MQQRSNRRSCSYIPLGVHNNAEKSLCTEVAPARKNKRSIAAAPIVNINVVERRLFNLELEKQQLRAKNLSENTGGGSPNGGAYLDAKKGVREQDQYQGGPSKELDRLQPPPSMKKSPPRKKKSLKDLIYETNKTFYQVDSNKVKYKVGLSKKQLLPSKTVDN
notes: Hed1, meiosis-specific protein of S. cerevisiae, with T40, T41 and S42 all substituted with alanine; source: E. coli, purified

Target: T1, Rad51 (S. cerevisiae, UniProt P25454 1-400)
T1 construct: Rad51 recombinase of S. cerevisiae; Used as 0.6 ug of protein in the pull-down
T1 sequence (looked up): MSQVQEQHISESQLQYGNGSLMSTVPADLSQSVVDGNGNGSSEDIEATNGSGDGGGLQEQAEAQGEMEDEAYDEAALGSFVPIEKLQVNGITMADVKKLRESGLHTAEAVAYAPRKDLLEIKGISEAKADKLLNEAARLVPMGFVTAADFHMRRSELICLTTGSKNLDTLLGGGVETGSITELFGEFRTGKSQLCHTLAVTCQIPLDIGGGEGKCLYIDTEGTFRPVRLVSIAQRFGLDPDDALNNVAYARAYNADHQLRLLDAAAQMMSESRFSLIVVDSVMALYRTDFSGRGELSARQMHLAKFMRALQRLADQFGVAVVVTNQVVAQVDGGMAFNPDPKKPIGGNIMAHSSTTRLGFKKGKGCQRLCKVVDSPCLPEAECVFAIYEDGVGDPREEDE
Assay: pull-down; GST-Hed1 WT or 3A (0.6 ug) incubated with Rad51 (0.6 ug), affinity pull-down with Glutathione Sepharose beads; supernatant, wash and SDS-eluate analysed by SDS-PAGE and Coomassie staining
Conditions: both partners purified

Row | Binder | binding result
1 | B1 | binds
2 | B2 | binds
